Here are results for five molecules from US20250250357A1 (NANJING ZAIMING PHARMACEUTICAL, published 2025).

In experiment [1] the target is T1, human MSLN-FL-his protein (human, UniProt Q13421 296-580).
T1 construct: also called human MSLN full-length protein; hMSLN-FL-his; not shown: His tag
Description: ELISA, coated antigen; antibody 1 nM. A general note: An ELISA detects its analyte on a solid surface through an enzyme-linked reagent.

Experiment [2] concerns the target T2, human MSLN-R1-his protein (human, UniProt Q13421 296-390).
T2 construct: also called human MSLN-R1 protein; hMSLN-R1-his; not shown: His tag
Description: ELISA, coated antigen; antibody 1 nM.

Experiment [3] concerns the target T3, human MSLN-R2-his protein (human, UniProt Q13421 391-486).
T3 construct: also called human MSLN-R2 protein; hMSLN-R2-his; not shown: His tag
Description: ELISA, coated antigen; antibody 1 nM.

The target in experiment [4] is T1, human MSLN-FL-his protein. Description: ELISA, coated antigen; antibody 10 nM.
Experiment [5] deals with T2, human MSLN-R1-his protein. Description: ELISA, coated antigen; antibody 10 nM.
The target in experiment [6] is T3, human MSLN-R2-his protein. Description: ELISA, coated antigen; antibody 10 nM.
The target in experiment [7] is T1, human MSLN-FL-his protein. Description: ELISA, coated antigen; antibody 0.1 nM.
In experiment [8] the target is T1, human MSLN-FL-his protein. In words: ELISA, coated antigen; antibody 100 nM.
Experiment [9] addresses T2, human MSLN-R1-his protein. Description: ELISA, coated antigen; antibody 0.1 nM.
The target of experiment [10] is T2, human MSLN-R1-his protein. In words: ELISA, coated antigen; antibody 100 nM.
The target of experiment [11] is T3, human MSLN-R2-his protein. In words: ELISA, coated antigen; antibody 0.1 nM.
Experiment [12] deals with T3, human MSLN-R2-his protein. Description: ELISA, coated antigen; antibody 100 nM.
Experiment [13] addresses T1, human MSLN-FL-his protein. In words: ELISA, coated antigen; antibody 0.01 nM.
In experiment [14] the target is T2, human MSLN-R1-his protein. Description: ELISA, coated antigen; antibody 0.01 nM.
Experiment [15] has as its target T3, human MSLN-R2-his protein. In words: ELISA, coated antigen; antibody 0.01 nM.
Experiment [16] has as its target T1, human MSLN-FL-his protein. In words: ELISA, coated antigen; antibody 0.001 nM.
Experiment [17] addresses T2, human MSLN-R1-his protein. In words: ELISA, coated antigen; antibody 0.001 nM.
For experiment [18], the target named is T3, human MSLN-R2-his protein. In words: ELISA, coated antigen; antibody 0.001 nM.
Experiment [19] deals with T1, human MSLN-FL-his protein. In words: ELISA, coated antigen; antibody 0.0001 nM.
The target of experiment [20] is T2, human MSLN-R1-his protein. In words: ELISA, coated antigen; antibody 0.0001 nM.
The target in experiment [21] is T3, human MSLN-R2-his protein. In words: ELISA, coated antigen; antibody 0.0001 nM.
The target of experiment [22] is T1, human MSLN-FL-his protein. Description: ELISA, coated antigen; no antibody (blank, column 'none').
Experiment [23] concerns the target T2, human MSLN-R1-his protein. The description is as above.
Experiment [24] concerns the target T3, human MSLN-R2-his protein. The description is as above.
Experiment [25] deals with human MSLN on OVCAR3 tumor cells (human, UniProt Q13421 296-598). Description: FACS, OVCAR3 cells. On the technique in general: Flow cytometry measures light scatter and fluorescence of single cells or particles in a stream.
Experiment [26] has as its target T4, human MSLN-R3 on HEK293T-hMSLN-R3 recombinant cells (human, UniProt Q13421 487-606).
T4 construct: the C-terminal limit is uncertain; also called human MSLN-R3 membrane protein
In words: FACS, HEK293T-hMSLN-R3 cells.

Experiment [27] concerns the target T5, monkey MSLN on HEK293T-monkey MSLN recombinant cells (monkey).
T5 construct: Full-length precursor as transfected; processing on the cell is not described; also called HEK293-monkey MSLN
T5 chain: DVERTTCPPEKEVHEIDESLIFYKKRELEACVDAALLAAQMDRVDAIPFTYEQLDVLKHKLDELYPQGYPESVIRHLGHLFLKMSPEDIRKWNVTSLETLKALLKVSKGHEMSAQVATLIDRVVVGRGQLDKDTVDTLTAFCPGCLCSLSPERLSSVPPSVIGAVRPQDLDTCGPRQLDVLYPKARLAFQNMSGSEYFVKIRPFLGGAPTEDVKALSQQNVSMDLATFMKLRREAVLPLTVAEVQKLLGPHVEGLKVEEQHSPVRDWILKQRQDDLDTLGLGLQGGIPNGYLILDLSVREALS
Description: FACS, HEK293T-monkey MSLN cells.

T2 sequence (Q13421 other isoform, or with tags, fused parts or gaps): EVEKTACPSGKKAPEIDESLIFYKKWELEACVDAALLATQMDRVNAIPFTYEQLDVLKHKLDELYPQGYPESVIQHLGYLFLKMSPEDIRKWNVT
T1 sequence (Q13421 other isoform, or with tags, fused parts or gaps): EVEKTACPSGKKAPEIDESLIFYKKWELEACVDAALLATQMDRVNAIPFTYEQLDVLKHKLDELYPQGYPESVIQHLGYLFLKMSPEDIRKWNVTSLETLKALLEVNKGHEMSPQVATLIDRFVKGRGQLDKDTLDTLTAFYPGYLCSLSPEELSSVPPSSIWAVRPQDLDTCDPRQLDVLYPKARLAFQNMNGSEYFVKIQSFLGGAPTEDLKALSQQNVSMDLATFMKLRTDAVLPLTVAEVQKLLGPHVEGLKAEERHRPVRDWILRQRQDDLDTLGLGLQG
T3 sequence (Q13421 other isoform, or with tags, fused parts or gaps): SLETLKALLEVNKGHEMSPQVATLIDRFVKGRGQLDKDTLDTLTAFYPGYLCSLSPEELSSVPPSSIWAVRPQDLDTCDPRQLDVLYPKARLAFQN
Sequence of human MSLN on OVCAR3 tumor cells (Q13421 other isoform, or with tags, fused parts or gaps): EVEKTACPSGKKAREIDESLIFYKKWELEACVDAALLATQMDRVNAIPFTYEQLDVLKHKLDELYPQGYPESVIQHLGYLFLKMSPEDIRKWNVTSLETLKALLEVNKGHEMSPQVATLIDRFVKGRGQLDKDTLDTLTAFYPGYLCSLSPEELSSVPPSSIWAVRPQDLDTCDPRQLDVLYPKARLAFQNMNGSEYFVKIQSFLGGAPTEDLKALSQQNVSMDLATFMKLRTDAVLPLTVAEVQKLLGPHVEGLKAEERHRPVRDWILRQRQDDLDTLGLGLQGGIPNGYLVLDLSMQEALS
T4 sequence (Q13421 495-614): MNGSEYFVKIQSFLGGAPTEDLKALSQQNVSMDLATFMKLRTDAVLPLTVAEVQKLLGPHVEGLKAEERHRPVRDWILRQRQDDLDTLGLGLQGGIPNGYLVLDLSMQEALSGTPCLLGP

B1: S009-F6-76.1 (antibody, human IgG1, kappa, V domains shown)
VH: QVQLQQSGPELVKPGASVKISCKASGYTFTDYYINWVKQRPGQGLEWIGWIFPGRGSTFYYEKFKGKATLTVDKSSSTAYMLLSSLTSEDSAVYFCARRGDSAGYEDLDYWGQGTSVTVSS
VL: NIVMTQSPKFMSMSVGERVTLSCKASENVVTYVSWYQQKPKQSPKLLIYGASKRYTGVPDRFTGSGSATDFTLTISSVQAEDLGDYHCGQSYSYPYTFGGGTKLEIKR
notes: Human-murine chimeric antibody, human IgG1/kappa constant regions
Consider B1, for which the OD450 in experiment [1] came to 2.87 OD450; in [2] it was 0.04 OD450; in experiment [3] it was 0.12 OD450; in [4], 2.87 OD450; in [5], 0.04 OD450; in experiment [6], 0.2 OD450. Moreover, the OD450 in experiment [7] was 2.4 OD450; in experiment [8], 2.83 OD450; in experiment [9], 0.04 OD450; in experiment [10] it was 0.06 OD450; in experiment [11] it was 0.07 OD450; in experiment [12], 0.33 OD450. Moreover, the OD450 turned out to be 1.09 OD450 in [13]; 0.04 OD450 in [14]; 0.04 OD450 in experiment [15]; 0.29 OD450 in [16]; 0.04 OD450 in experiment [17]; 0.04 OD450 in [18]. Besides, the OD450 in experiment [19] turned out to be 0.1 OD450; in [20], 0.04 OD450; in experiment [21], 0.05 OD450; in experiment [22] it was 0.05 OD450; in experiment [23] it was 0.04 OD450; in experiment [24], 0.05 OD450.

B2: S009-F4-94.15 (antibody, human IgG1, kappa, V domains shown)
VH: QVQLHQPGAELVRPGSSVKLSCKASGYTFTSYWVHWVQQRPRQGLEWIGNIDPSDSEIHYNQKFKDKATLTVDKSSSTAYIHLSRLTSEDSAIYYCVRGGVPWFAYWGQGTLVTVSA
VL: QIVLTQSPAIMSASPGEKVTLTCSASSSVSSTYLYWFQQKPGSSPKVWIYSTSNLASGVPARFSGSGSGTSYSLTISSMEAEDAASYFCHQWISYPYTFGGGTKLEIKR
notes: as for B1
As to B2, the OD450 in experiment [1] came to 1.79 OD450; in [2], 0.05 OD450; in experiment [3], 0.05 OD450; in [4] it was 1.84 OD450; in experiment [5], 0.06 OD450; in [6] it was 0.06 OD450. The OD450 came out at 1.57 OD450 in experiment [7]; 1.9 OD450 in experiment [8]; 0.05 OD450 in [9]; 0.07 OD450 in experiment [10]; 0.05 OD450 in experiment [11]; 0.07 OD450 in [12]. Moreover, the OD450 was 0.57 OD450 in experiment [13]; 0.05 OD450 in [14]; 0.05 OD450 in experiment [15]; 0.13 OD450 in experiment [16]; 0.05 OD450 in experiment [17]; 0.05 OD450 in experiment [18]. Also, the OD450 in experiment [19] was found to be 0.06 OD450; in experiment [20] it was 0.05 OD450; in experiment [21] it was 0.06 OD450; in experiment [22], 0.06 OD450; in [23], 0.07 OD450; in experiment [24], 0.07 OD450.

B3: S009-F4-127.10 (antibody, human IgG1, kappa, V domains shown)
VH: EVQLQQSGPVLVKPGASVKMSCKASGYTFTDYYMNWVKQSHGKSPEWIGVINPYNDVISYNQKFKGKATLTVDKSSSTAYMELNSLTSEDSAVYYCANYGSSYYAMDYWGQGTSVTVSS
VL: DVVMTQTPLSLSVSLGDQASISCRSSQSLVHSNGNTYLQWSLQKPGQSPNLLIYKVSNRFSGVPDRFSGSGSGTDFTLKISRVEAEDLGVYFCSQTTHVPFTFGGGTKLEIRR
notes: as for B1
With B3, the OD450 amounted to 0.06 OD450 in [1]; 0.05 OD450 in experiment [2]; 0.05 OD450 in experiment [3]; 0.09 OD450 in [4]; 0.06 OD450 in experiment [5]; 0.06 OD450 in [6]. Moreover, the OD450 in experiment [7] turned out to be 0.06 OD450; in experiment [8], 0.21 OD450; in [9], 0.05 OD450; in [10], 0.08 OD450; in [11], 0.05 OD450; in experiment [12], 0.09 OD450. Besides, the OD450 worked out at 0.06 OD450 in [13]; 0.05 OD450 in [14]; 0.05 OD450 in experiment [15]; 0.06 OD450 in [16]; 0.05 OD450 in [17]; 0.05 OD450 in experiment [18]. For the same molecule, the OD450 in experiment [19] amounted to 0.06 OD450; in experiment [20], 0.05 OD450; in experiment [21], 0.06 OD450; in experiment [22], 0.06 OD450; in experiment [23] it was 0.06 OD450; in [24], 0.06 OD450.

B4: F7.44.20 (scFv)
chain: EVQLQQSGPELVKPGASVKIPCKASGYTFTDYNMDWVKQSHGKSLEWIGDINPSTGGTIYNQKFNGKATLTEDKSASTVYMEFRSLTSDDTAVYYCARRRIGTGYFDVWGTGTTVTVSSGGGGSGGGGSGGGGSQIVLTQSPALMSASPGEKVTLTCSASSSVISSYLSWYQQKPGSSPKLLIYRTSNLASGVPARFSGSGSGTSYSLTISSMEAEDAASYFCHQWSSFPYTFGGGTKLEIK
Take B4: the results for the EC50 in experiment [25], in experiment [26] and in experiment [27] were 2.42 nM, 1.27 nM and 8.38 nM, respectively. Further, the results for the Maximum_MFI in experiment [25], in experiment [26] and in experiment [27] were 1600 MFI, 1450 MFI and 7040 MFI, respectively.

B5: S009-F5-9.16 (antibody, human IgG1, kappa, V domains shown)
VH: EVQLRQSGPVLVKPGASVKMSCKASGYTFTDYFMNWVKPSHGKSLEWIGVINPSNGVINYNQRFKGKATLTVDKSSSTAYMELNSLTSEDSAVYYCARSYDFAWFAYWGQGTLVTVSA
VL: DVLMTQTPLSLPVSLGDQASISCRSSQNIVHSNGNTYLEWYLQKPGQSPKLLIYTVSNRFSGVPDRFSGSGSGTDFTLKISRVEAEDLGVYYCFQGSHVPYTFGGGTKLEIKR
notes: as for B1
B5: the OD450 was 0.06 OD450 in [1]; 0.04 OD450 in [2]; 0.04 OD450 in experiment [3]; 0.19 OD450 in experiment [4]; 0.05 OD450 in experiment [5]; 0.06 OD450 in [6]. The OD450 in [7] came to 0.04 OD450; in [8], 1.12 OD450; in experiment [9] it was 0.04 OD450; in experiment [10], 0.09 OD450; in experiment [11], 0.04 OD450; in experiment [12] it was 0.13 OD450. The OD450 in experiment [13], in [14], in experiment [15], in [16], in experiment [17] and in experiment [18] was 0.04 OD450 each time. Besides, the OD450 in experiment [19] was 0.04 OD450; in experiment [20] it was 0.05 OD450; in experiment [21] it was 0.04 OD450; in [22], 0.05 OD450; in experiment [23], 0.04 OD450; in [24] it was 0.05 OD450.

In general, EC50 refers to the midpoint of the concentration-response curve.
